Measurements taken from US20130281374A1.

Target: T1, human GIP receptor (human), P48546
T1 chain: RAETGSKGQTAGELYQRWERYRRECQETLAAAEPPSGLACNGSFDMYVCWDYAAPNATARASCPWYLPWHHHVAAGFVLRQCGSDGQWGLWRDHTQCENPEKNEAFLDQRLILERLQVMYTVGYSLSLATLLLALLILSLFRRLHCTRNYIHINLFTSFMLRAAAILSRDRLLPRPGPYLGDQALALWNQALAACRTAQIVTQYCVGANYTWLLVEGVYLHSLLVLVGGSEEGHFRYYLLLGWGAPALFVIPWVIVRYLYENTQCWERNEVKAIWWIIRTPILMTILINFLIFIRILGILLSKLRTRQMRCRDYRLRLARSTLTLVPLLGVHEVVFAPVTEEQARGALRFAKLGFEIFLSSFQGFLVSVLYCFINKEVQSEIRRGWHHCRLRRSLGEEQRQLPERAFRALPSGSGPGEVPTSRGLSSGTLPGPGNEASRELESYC
Assay: 125I-GIP displacement, HEK-GIPR membranes

- % Inh 10 nM: 3%
Binder: HGEGTLISDYSIAMDKIHQQDFVNWLLAQKPKKIRYS (modifications not checked) [0601GIP4843]
